The target of data set [1] is T1, AGO2 A367P (Homo sapiens, UniProt Q9UKV8 1-859, A367P;S387D;S824A;S828D;S831D;S834A). Description: northern blot of purified complex; ~1:1 AGO2:miR-122; 30 mM Tris pH 8.0, 100 mM KOAc, 2 mM MgOAc, 0.5 mM TCEP, 0.005% NP-40, 0.01 mg/ml yeast tRNA, room temperature, 2 h (equilibrium); association buffer listed without Mg. The following applies: protein: recombinant; tags: His6 (N-terminal, pFastBac HTA).

For data set [2], the target named is T2, AGO2 L192P (Homo sapiens, UniProt Q9UKV8 1-859, L192P;S387D;S824A;S828D;S831D;S834A). The description is as above. The following applies: protein: recombinant; tags: His6 (N-terminal, pFastBac HTA).
T2 sequence (Q9UKV8 whole entry L192P/S387D/S824A/S828D/S831D/S834A): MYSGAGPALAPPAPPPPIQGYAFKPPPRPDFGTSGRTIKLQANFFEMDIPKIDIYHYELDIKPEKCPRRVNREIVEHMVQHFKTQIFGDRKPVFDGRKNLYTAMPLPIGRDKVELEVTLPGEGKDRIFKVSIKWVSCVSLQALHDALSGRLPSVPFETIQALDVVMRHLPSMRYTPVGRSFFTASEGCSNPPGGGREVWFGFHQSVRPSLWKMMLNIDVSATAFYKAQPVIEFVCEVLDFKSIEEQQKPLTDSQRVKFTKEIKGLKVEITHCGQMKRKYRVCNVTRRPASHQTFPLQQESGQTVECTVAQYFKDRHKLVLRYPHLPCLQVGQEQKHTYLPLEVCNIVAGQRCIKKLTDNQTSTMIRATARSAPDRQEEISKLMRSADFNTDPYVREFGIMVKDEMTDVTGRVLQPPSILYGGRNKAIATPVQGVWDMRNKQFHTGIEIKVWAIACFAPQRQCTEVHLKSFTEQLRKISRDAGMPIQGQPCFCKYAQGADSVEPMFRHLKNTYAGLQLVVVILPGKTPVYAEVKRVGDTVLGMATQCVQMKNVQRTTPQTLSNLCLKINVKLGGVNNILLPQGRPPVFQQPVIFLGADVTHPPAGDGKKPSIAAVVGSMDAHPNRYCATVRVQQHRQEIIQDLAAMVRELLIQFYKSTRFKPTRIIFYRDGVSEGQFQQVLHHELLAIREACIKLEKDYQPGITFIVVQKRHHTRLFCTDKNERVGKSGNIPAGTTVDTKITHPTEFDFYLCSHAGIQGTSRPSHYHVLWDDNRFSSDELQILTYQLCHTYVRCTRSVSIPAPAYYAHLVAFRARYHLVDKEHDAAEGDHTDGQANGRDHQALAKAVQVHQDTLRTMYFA
Data set [3] deals with T3, AGO2 F182del (Homo sapiens, UniProt Q9UKV8 1-859, S387D;S824A;S828D;S831D;S834A;del182-182). The data set is described as above. The following applies: protein: recombinant; tags: His6 (N-terminal, pFastBac HTA).
T3 sequence (Q9UKV8 other isoform, or with tags, fused parts or gaps S387D;S824A;S828D;S831D;S834A;del182-182): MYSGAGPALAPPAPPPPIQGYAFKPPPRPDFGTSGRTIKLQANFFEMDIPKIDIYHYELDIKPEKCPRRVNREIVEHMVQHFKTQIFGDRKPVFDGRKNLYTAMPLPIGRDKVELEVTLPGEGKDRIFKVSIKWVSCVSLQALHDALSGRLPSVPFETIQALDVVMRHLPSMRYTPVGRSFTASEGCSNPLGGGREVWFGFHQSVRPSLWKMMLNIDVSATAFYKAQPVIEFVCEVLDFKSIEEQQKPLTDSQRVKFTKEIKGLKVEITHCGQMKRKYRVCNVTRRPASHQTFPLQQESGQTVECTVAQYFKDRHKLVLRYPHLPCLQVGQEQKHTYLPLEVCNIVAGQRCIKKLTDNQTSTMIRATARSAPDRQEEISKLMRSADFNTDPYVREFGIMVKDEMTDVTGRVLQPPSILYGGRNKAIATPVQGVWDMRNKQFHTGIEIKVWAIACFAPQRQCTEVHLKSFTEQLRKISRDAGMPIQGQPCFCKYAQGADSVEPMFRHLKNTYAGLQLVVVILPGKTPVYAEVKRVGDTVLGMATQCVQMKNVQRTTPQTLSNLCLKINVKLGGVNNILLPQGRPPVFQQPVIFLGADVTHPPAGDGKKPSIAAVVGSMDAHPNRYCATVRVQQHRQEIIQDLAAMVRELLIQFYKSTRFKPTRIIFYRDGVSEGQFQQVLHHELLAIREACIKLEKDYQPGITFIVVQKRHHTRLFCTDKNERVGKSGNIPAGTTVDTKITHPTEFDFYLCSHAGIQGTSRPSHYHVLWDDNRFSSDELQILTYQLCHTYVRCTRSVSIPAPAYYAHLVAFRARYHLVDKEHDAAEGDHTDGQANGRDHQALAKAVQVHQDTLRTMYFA
The target of data set [4] is T4, AGO2 T357M (Homo sapiens, UniProt Q9UKV8 1-859, T357M;S387D;S824A;S828D;S831D;S834A). The data set is described as above. The conditions noted are these: protein: recombinant; tags: His6 (N-terminal, pFastBac HTA).
T4 sequence (Q9UKV8 whole entry T357M/S387D/S824A/S828D/S831D/S834A): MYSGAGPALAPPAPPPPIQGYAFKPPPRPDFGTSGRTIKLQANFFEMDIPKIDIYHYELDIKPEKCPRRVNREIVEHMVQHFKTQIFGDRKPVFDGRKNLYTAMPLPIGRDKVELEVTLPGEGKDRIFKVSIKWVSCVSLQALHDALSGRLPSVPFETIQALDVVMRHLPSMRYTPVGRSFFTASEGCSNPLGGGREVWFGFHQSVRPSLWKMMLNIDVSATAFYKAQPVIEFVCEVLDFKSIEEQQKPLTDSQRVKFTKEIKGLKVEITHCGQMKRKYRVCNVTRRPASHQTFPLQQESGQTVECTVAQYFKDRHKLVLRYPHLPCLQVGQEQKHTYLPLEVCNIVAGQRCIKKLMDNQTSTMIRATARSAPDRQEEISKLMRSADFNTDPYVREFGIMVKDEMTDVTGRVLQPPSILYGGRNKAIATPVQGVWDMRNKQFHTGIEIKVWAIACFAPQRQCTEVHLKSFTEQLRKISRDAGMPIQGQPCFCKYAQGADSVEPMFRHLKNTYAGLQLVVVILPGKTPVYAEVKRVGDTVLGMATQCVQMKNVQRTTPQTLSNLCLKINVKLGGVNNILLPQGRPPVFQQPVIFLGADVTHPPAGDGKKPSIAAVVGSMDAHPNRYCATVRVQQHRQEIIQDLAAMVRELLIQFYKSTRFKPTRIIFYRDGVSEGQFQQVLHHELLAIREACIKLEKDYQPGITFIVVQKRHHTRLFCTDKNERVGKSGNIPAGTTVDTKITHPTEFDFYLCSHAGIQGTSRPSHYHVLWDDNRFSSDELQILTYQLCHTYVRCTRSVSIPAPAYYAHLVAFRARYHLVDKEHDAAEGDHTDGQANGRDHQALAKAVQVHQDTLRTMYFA
For data set [5], the target named is T1, AGO2 A367P. Kind of data set: pull-down; recovery similar to WT; 30 mM Tris pH 8.0, 100 mM KOAc, 2 mM MgOAc, 0.5 mM TCEP, 0.005% NP-40, 0.01 mg/ml yeast tRNA, room temperature, 2 h (equilibrium); association buffer listed without Mg. The conditions noted are these: protein: recombinant; tags: His6 (N-terminal, pFastBac HTA); label: biotin on capture oligo; guide paired in part with capture oligo.

Data set [6] has as its target T2, AGO2 L192P. The data set is described as above. The conditions noted are these: protein: recombinant; tags: His6 (N-terminal, pFastBac HTA); label: biotin on capture oligo; guide paired in part with capture oligo.
Data set [7] has as its target T3, AGO2 F182del. Described as above. The conditions noted are these: protein: recombinant; tags: His6 (N-terminal, pFastBac HTA); label: biotin on capture oligo; guide paired in part with capture oligo.
The target in data set [8] is T4, AGO2 T357M. The description is as above. The following applies: protein: recombinant; tags: His6 (N-terminal, pFastBac HTA); label: biotin on capture oligo; guide paired in part with capture oligo.
Data set [9] has as its target T4, AGO2 T357M. Kind of data set: filter binding; 2 mM Mg2+; 30 mM Tris pH 8.0, 100 mM KOAc, 2 mM MgOAc, 0.5 mM TCEP, 0.005% NP-40, 0.01 mg/ml yeast tRNA, room temperature, 2 h (equilibrium); association buffer listed without Mg. The following applies: protein: recombinant; tags: His6 (N-terminal, pFastBac HTA); label: 32P 5' on target; guide g2-g8 paired with target ACACUCC; remainder unpaired.

Data set [10] deals with T1, AGO2 A367P. Description: filter binding (association); AGO2-miR-122 0.25-1.5 nM; 30 mM Tris pH 8.0, 100 mM KOAc, 2 mM MgOAc, 0.5 mM TCEP, 0.005% NP-40, 0.01 mg/ml yeast tRNA, room temperature, 2 h (equilibrium); association buffer listed without Mg. The conditions noted are these: protein: recombinant; tags: His6 (N-terminal, pFastBac HTA); label: 32P 5' on target; guide g2-g8 paired with target ACACUCC; remainder unpaired.

Data set [11] concerns the target T2, AGO2 L192P. The description is as above. The following applies: protein: recombinant; tags: His6 (N-terminal, pFastBac HTA); label: 32P 5' on target; guide g2-g8 paired with target ACACUCC; remainder unpaired.
For data set [12], the target named is T1, AGO2 A367P. Description: filter binding (dissociation); 300 nM unlabeled target chase; 30 mM Tris pH 8.0, 100 mM KOAc, 2 mM MgOAc, 0.5 mM TCEP, 0.005% NP-40, 0.01 mg/ml yeast tRNA, room temperature, 2 h (equilibrium); association buffer listed without Mg. The conditions noted are these: protein: recombinant; tags: His6 (N-terminal, pFastBac HTA); label: 32P 5' on target; guide g2-g8 paired with target ACACUCC; remainder unpaired.

Data set [13] has as its target T4, AGO2 T357M. The description is as above. The conditions noted are these: protein: recombinant; tags: His6 (N-terminal, pFastBac HTA); label: 32P 5' on target; guide g2-g8 paired with target ACACUCC; remainder unpaired.
For data set [14], the target named is T2, AGO2 L192P. Kind of data set: filter binding (dissociation); 300 nM unlabeled target chase; slowest release; 30 mM Tris pH 8.0, 100 mM KOAc, 2 mM MgOAc, 0.5 mM TCEP, 0.005% NP-40, 0.01 mg/ml yeast tRNA, room temperature, 2 h (equilibrium); association buffer listed without Mg. The conditions noted are these: protein: recombinant; tags: His6 (N-terminal, pFastBac HTA); label: 32P 5' on target; guide g2-g8 paired with target ACACUCC; remainder unpaired.

T1 sequence (Q9UKV8 whole entry A367P/S387D/S824A/S828D/S831D/S834A): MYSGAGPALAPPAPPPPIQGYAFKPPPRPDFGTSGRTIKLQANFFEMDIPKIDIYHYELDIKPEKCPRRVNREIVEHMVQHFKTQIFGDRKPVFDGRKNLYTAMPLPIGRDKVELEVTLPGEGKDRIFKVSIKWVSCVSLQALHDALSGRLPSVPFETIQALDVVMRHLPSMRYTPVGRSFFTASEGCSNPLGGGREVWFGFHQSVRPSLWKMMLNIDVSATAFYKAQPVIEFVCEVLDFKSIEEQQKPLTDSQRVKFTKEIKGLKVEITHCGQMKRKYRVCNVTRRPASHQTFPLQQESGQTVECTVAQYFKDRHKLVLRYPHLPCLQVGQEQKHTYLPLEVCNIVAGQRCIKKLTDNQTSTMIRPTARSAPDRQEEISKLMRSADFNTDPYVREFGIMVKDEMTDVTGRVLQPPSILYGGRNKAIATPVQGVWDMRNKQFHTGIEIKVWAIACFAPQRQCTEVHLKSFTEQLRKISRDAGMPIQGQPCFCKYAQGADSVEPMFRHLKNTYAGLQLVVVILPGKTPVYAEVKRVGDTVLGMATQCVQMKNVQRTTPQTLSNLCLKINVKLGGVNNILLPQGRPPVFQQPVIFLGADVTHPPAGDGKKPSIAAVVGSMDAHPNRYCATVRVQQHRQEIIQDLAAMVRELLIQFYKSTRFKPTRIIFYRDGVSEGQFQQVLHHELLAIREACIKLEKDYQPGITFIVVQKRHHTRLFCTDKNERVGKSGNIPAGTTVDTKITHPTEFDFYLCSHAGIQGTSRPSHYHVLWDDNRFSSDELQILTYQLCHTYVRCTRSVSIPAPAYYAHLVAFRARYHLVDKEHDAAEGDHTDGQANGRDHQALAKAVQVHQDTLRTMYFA

For the molecule UGGAGUGUGACAAUGGUGUUUG (ssRNA, 5' phosphate) [miR-122 guide RNA], the binding result in data set [1], in data set [2], in [3] and in data set [4] was “binds” in each case.

B1: miR-122 guide / biotinylated capture oligo (DNA:RNA)
RNA: UGGAGUGUGACAAUGGUGUUUG
DNA: TCTCGTCTAACCATGCCAACACTCCAACTCT
modifications: 5' phosphate on guide
For B1, the binding result in data set [5], in data set [6], in data set [7] and in [8] was “binds” throughout.

B2: miR-122 guide / seed-matched target RNA (dsRNA)
RNA 1: UGGAGUGUGACAAUGGUGUUUG
RNA 2: AAAAAAAAAAAAACACUCCUAA
modifications: 5' phosphate on guide
For B2, the binding signal in [9] was 1.8 fold lower KD than WT (not significant); in [10] it was > 5 fold slower association than WT (at least); in data set [11] it was > 5 fold slower association than WT (at least); in data set [12], ~20 fold slower koff (slow phase) vs near-WT fast phase; in data set [13], ~20 fold slower koff (slow phase) vs near-WT fast phase; in [14], ~20 fold slower koff (slow phase) vs near-WT fast phase.

These data come from article PMC12529666, “Dysregulation of AGO2-miRNA dynamics underlies the AGO2-associated Lessel–Kreienkamp syndrome”.
